In patent US6747136 one finds IC50 data, which are given here for one molecule.

For the experiment, the target named is HCV E2 antigen (HCV genotype 1b) (hepatitis C virus genotype 1b).

B1: Fab molecule clone 1:11 (Fab, V domains shown)
VH: VQLLEQSGAEVKKPGSSVKVSCKASGGTFSGHVISWVRQAPGQGLEWMGGSISFFGTSNSAQKFQGRVSITADESASTAYMELSSLRSEDTAIYYCAKDPPRFCSGGNCYPGFFQQWGQGTLVTVSS
VL: AELTQSPGTLSLSPGERATLSCGASQSVRSNYLAWYQQKPGQAPRLLIYGVSSRATGIPDRFSGSGSGTDFTLTISRLEPEDFAVYYCQQYGSSPRTFGQGTKLEIK
Molecule B1 showed an IC50 of 0.15 µg/mL.
